This series concerns Fct4 protein (Sendai virus F protein with truncated cytoplasmic domain), uncleaved.

The record followed here is US20240082327.

For trypsin-like enzyme TrypLE, the “cleavage of Fct4 shown by Western blotting” value is given as “incubation with a trypsin-like enzyme successfully cleaves Fct4”.
